{"source": "the supplement of paper PMC10724198", "note": "± gives the standard deviation of the averaged measurements.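 Further: PSI is a weighted mean of sequencing reads over stability bins, variants kept only with over 10 reads, mCherry proximal and sfGFP distal, peptide attached via GGGS linker.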"}
{"system": "Saccharomyces cerevisiae", "assay": "protein stability index of tFT-peptide fusion (C-terminal peptide) (PSI (0-1 scale)); higher = more stable (slower turnover)", "details": "genetic background: wild type; temperature: 30 C"}
{"sequence": "PSLLLPPYSSAP", "protein stability index": "0.743 ± 0.021"}
{"sequence": "PSLPDSALRHSL", "protein stability index": "0.70673 ± 9.8e-05"}
{"sequence": "PSLPPPFPPLRP", "protein stability index": "0.7044 ± 0.0013"}
{"sequence": "PSLPPPSPSPPP", "protein stability index": "0.666 ± 0.05"}
{"sequence": "PSLSPVEVPLSR", "protein stability index": "0.759 ± 0.046"}
{"sequence": "PSLVGRVWLEFV", "protein stability index": "0.691 ± 0.061"}
{"sequence": "PSPALGPFLAYR", "protein stability index": "0.695 ± 0.0077"}
{"sequence": "PSPAPRPFAPLP", "protein stability index": "0.69 ± 0.01"}
{"sequence": "PSPASPPPPPLP", "protein stability index": "0.714 ± 0.2"}
{"sequence": "PSPLAPPPRLPV", "protein stability index": "0.733 ± 0.049"}
{"sequence": "PSPLFSGSFLFF", "protein stability index": "0.716 ± 0.029"}
{"sequence": "PSPLPLLPPPRP", "protein stability index": "0.645 ± 0.037"}
{"sequence": "PSPLPPPLPPPV", "protein stability index": "0.675 ± 0.043"}
{"sequence": "PSPLPSPLLTTL", "protein stability index": "0.6816 ± 0.0062"}
{"sequence": "PSPPFPPPSPPP", "protein stability index": "0.687 ± 0.02"}
{"sequence": "PSPPHLCPSPFA", "protein stability index": "0.7518 ± 0.0015"}
{"sequence": "PSPPHPPIPTSP", "protein stability index": "0.696 ± 0.015"}
{"sequence": "PSPPIPALSFST", "protein stability index": "0.684 ± 0.03"}
{"sequence": "PSPPLPHLLLLP", "protein stability index": "0.6929 ± 0.0035"}
{"sequence": "PSPPPPPRSFLH", "protein stability index": "0.649 ± 0.066"}
{"sequence": "PSPPPPSRLLPP", "protein stability index": "0.689 ± 0.025"}
{"sequence": "PSPPPSISIPPS", "protein stability index": "0.73 ± 0.17"}
{"sequence": "PSPPPSPPSPPS", "protein stability index": "0.708 ± 0.02"}
{"sequence": "PSPPQLPAAPSP", "protein stability index": "0.779 ± 0.086"}
{"sequence": "PSPPRPRLPTAV", "protein stability index": "0.67026 ± 0.00045"}
{"sequence": "PSPPRPSGVPVT", "protein stability index": "0.674 ± 0.017"}
{"sequence": "PSPPVMSPEVAC", "protein stability index": "0.627 ± 0.038"}
{"sequence": "PSPQNIPDPISP", "protein stability index": "0.673 ± 0.04"}
{"sequence": "PSPRASLPRLPP", "protein stability index": "0.597 ± 0.074"}
{"sequence": "PSPRPFPPPLPP", "protein stability index": "0.6262 ± 0.0022"}
{"sequence": "PSPRPSPRPSPR", "protein stability index": "0.692 ± 0.062"}
{"sequence": "PSPSAGPAPTPL", "protein stability index": "0.65 ± 0.084"}
{"sequence": "PSPSWYGRRLLG", "protein stability index": "0.659 ± 0.027"}
{"sequence": "PSPTPPPPRSPS", "protein stability index": "0.721 ± 0.029"}
{"sequence": "PSQTTRSPPPPP", "protein stability index": "0.708 ± 0.015"}
{"sequence": "PSQWLPSRSRTA", "protein stability index": "0.733 ± 0.052"}
{"sequence": "PSRLAPPSPSIP", "protein stability index": "0.694 ± 0.051"}
{"sequence": "PSRPSPSPHLPL", "protein stability index": "0.849 ± 0.011"}
{"sequence": "PSSLRLPLCSPL", "protein stability index": "0.7039 ± 0.004"}
{"sequence": "PSSLSSLPPPSP", "protein stability index": "0.669 ± 0.024"}
{"sequence": "PSSPALIPCRLV", "protein stability index": "0.61 ± 0.027"}
{"sequence": "PSSPLSPAPPPP", "protein stability index": "0.659 ± 0.015"}
{"sequence": "PSTLLTFAISIP", "protein stability index": "0.666 ± 0.045"}
{"sequence": "PSTPLPHLTRPS", "protein stability index": "0.677 ± 0.07"}
{"sequence": "PSVPRLPGLSLR", "protein stability index": "0.629 ± 0.053"}
{"sequence": "PTAPVLRPPASP", "protein stability index": "0.7 ± 0.011"}
{"sequence": "PTARIPGLYLFP", "protein stability index": "0.695 ± 0.049"}
{"sequence": "PTHDPPSLHSPA", "protein stability index": "0.604 ± 0.027"}
{"sequence": "PTITPPPPPPPP", "protein stability index": "0.625 ± 0.0067"}
{"sequence": "PTKSQNEKTKAE", "protein stability index": "0.679 ± 0.037"}
{"sequence": "PTLDATLSVASG", "protein stability index": "0.667 ± 0.036"}
{"sequence": "PTLIPPPPPPGP", "protein stability index": "0.718 ± 0.059"}
{"sequence": "PTLLRRVPPVPL", "protein stability index": "0.677 ± 0.087"}
{"sequence": "PTLPPHSLRPPP", "protein stability index": "0.692 ± 0.018"}
{"sequence": "PTPAPLPPPSPP", "protein stability index": "0.592 ± 0.024"}
{"sequence": "PTPIPLGLHSLS", "protein stability index": "0.705 ± 0.048"}
{"sequence": "PTPLPPPPPRPD", "protein stability index": "0.715 ± 0.063"}
{"sequence": "PTPLPPRSPPPQ", "protein stability index": "0.754 ± 0.045"}
{"sequence": "PTPPLPYRPRSP", "protein stability index": "0.674 ± 0.014"}
{"sequence": "PTPRGTPCPDTM", "protein stability index": "0.66 ± 0.065"}
{"sequence": "PTPTTNPTHSAP", "protein stability index": "0.695 ± 0.048"}
{"sequence": "PTPTTSPASRQN", "protein stability index": "0.682 ± 0.023"}
{"sequence": "PTREGSDGMVGN", "protein stability index": "0.702 ± 0.021"}
{"sequence": "PTRRFVFCDVDK", "protein stability index": "0.717 ± 0.077"}
{"sequence": "PTRSEGYSVVYM", "protein stability index": "0.693 ± 0.043"}
{"sequence": "PTSPHPPPCSPP", "protein stability index": "0.724 ± 0.22"}
{"sequence": "PTTPPTILLLPL", "protein stability index": "0.658 ± 0.031"}
{"sequence": "PTTVSRPPPPSP", "protein stability index": "0.711 ± 0.009"}
{"sequence": "PTVLFQFSESWP", "protein stability index": "0.668 ± 0.044"}
{"sequence": "PTYDSLPLLDNC", "protein stability index": "0.673 ± 0.014"}
{"sequence": "PTYRGAPCLPPF", "protein stability index": "0.728 ± 0.013"}
{"sequence": "PVFLEFESWCVC", "protein stability index": "0.685 ± 0.044"}
{"sequence": "PVFLSCCLCLLS", "protein stability index": "0.78 ± 0.099"}
{"sequence": "PVICFTSYPDRQ", "protein stability index": "0.7 ± 0.098"}
{"sequence": "PVLPLPSLPSPS", "protein stability index": "0.675 ± 0.0093"}
{"sequence": "PVLRLPHDETAN", "protein stability index": "0.705 ± 0.035"}
{"sequence": "PVLYWHSYRLCR", "protein stability index": "0.65 ± 0.008"}
{"sequence": "PVPLLHPRSLSL", "protein stability index": "0.781 ± 0.074"}
{"sequence": "PVSCMAWGRLVL", "protein stability index": "0.667 ± 0.041"}
{"sequence": "PVSPLFWSAKRL", "protein stability index": "0.71061 ± 0.00011"}
{"sequence": "PVSPSIHPPSYP", "protein stability index": "0.759 ± 0.023"}
{"sequence": "PVSSLPQTLLMF", "protein stability index": "0.758 ± 0.22"}
{"sequence": "PVVGNPHRIFGV", "protein stability index": "0.714 ± 0.028"}
{"sequence": "PVVKGAAGSAQR", "protein stability index": "0.725 ± 0.074"}
{"sequence": "PWDPDTPIPPRP", "protein stability index": "0.716 ± 0.012"}
{"sequence": "PWRLFVTSGSPA", "protein stability index": "0.714 ± 0.048"}
{"sequence": "PWVGRFVRLGVR", "protein stability index": "0.676 ± 0.058"}
{"sequence": "PYIPSSVSLRQD", "protein stability index": "0.712 ± 0.0092"}
{"sequence": "PYPNAQRIEIKF", "protein stability index": "0.651 ± 0.026"}
{"sequence": "PYRFRDRTYEEL", "protein stability index": "0.673 ± 0.022"}
{"sequence": "PYSSVPLAPPRP", "protein stability index": "0.736 ± 0.043"}
{"sequence": "QAGKPAIHHAAL", "protein stability index": "0.682 ± 0.0034"}
{"sequence": "QAVTSVGTTNIV", "protein stability index": "0.689 ± 0.023"}
{"sequence": "QCAIRQCCLVSL", "protein stability index": "0.574 ± 0.064"}
{"sequence": "QCGAWLKFTCHV", "protein stability index": "0.636 ± 0.058"}
{"sequence": "QCRSLVGGCCVW", "protein stability index": "0.693 ± 0.031"}
{"sequence": "QCSVFSSPPRAL", "protein stability index": "0.723 ± 0.1"}
{"sequence": "QCVSGLGPVVRT", "protein stability index": "0.7329 ± 0.0029"}
{"sequence": "QDERPLAPRTRW", "protein stability index": "0.7251 ± 0.0032"}
{"sequence": "QDLIVENGSVSG", "protein stability index": "0.655 ± 0.009"}
{"sequence": "QESPERRGVPPF", "protein stability index": "0.674 ± 0.047"}
